Data from paper PMC4761948 (2016).

Target: T1, GST-GCM1 (Homo sapiens (Human), UniProt Q9NP62)
T1 chain: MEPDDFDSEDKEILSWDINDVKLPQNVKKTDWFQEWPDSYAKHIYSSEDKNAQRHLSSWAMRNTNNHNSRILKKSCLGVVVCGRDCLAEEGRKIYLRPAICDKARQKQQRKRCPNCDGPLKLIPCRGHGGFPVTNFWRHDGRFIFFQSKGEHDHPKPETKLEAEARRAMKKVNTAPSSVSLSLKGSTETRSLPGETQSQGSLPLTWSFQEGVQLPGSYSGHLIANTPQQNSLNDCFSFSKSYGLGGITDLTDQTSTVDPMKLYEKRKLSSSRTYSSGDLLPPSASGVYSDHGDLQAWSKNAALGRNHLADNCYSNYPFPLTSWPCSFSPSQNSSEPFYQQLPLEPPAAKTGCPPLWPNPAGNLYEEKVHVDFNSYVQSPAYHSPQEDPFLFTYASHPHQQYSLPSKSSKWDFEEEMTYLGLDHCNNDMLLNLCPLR
Test: GST pull-down

binding result: binds
B1: GATA3-FLAG (protein)
chain: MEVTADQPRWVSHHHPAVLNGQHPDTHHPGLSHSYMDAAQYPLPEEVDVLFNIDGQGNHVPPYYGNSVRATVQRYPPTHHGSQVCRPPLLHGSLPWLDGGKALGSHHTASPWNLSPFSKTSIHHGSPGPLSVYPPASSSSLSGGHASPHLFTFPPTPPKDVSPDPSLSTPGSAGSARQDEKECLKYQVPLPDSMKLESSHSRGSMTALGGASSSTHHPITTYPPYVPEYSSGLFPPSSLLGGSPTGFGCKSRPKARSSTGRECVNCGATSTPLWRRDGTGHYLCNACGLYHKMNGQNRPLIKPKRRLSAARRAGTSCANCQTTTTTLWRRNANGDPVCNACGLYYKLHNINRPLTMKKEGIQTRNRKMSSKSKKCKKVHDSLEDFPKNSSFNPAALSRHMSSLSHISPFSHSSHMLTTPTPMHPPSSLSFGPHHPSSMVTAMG
